Assays:
HeLa Kyoto [1] = test: solubility in G1/S (NP-40 vs SDS abundance) (log2 ratio); higher = more soluble; settings: cell cycle stage: G1/S
HeLa Kyoto [2] = test: melting temperature (median over replicates), in situ; higher = more thermally stable
HeLa Kyoto [3] = test: solubility change mitosis vs G1/S (difference of NP-40 vs SDS log2 ratios) (log2 ratio difference); higher = more soluble in mitosis
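Throughout, for melting temperature (median over replicates), in situ: HeLa Kyoto cells synchronized by double thymidine or nocodazole block, proteins quantified by TMT10plex mass spectrometry, three independent biological replicates.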
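Throughout, for solubility change mitosis vs G1/S (difference of NP-40 vs SDS log2 ratios): synchronized HeLa Kyoto cells (double thymidine block for G1/S, nocodazole release for mitosis), protein amounts in NP-40 versus SDS lysates quantified by mass spectrometry, three biological replicates.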
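Throughout, for solubility in G1/S (NP-40 vs SDS abundance): HeLa Kyoto cells arrested at G1/S by double thymidine block, proteins quantified by TMT10plex mass spectrometry in mild NP-40 versus SDS extracts, three biological replicates.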

With “MDTSSVGGLELTDQTPVLLGSTAMATSLTNVGNSFSGPANPLVSRSNKFQNSSVEDDDDVVFIEPVQPPPPSVPVVADQRTITFTSSKNEELQGNDSKITPSSKELASQKGSVSETIVIDDEEDMETNQGQEKNSSNFIERRPPETKNRTNDVDFSTSSFSRSKVNAGMGNSGITTEPDSEIQIANVTTLETGVSSVNDGQLENTDGRDMNLMITHVTSLQNTNLGDVSNGLQSSNFGVNIQTYTPSLTSQTKTGVGPFNPGRMNVAGDVFQNGESATHHNPDSWISQSASFPRNQKQPGVDSLSPVASLPKQIFQPSVQQQPTKPVKVTCANCKKPLQKGQTAYQRKGSAHLFCSTTCLSSFSHKPAPKKLCVMCKKDITTMKGTIVAQVDSSESFQEFCSTSCLSLYEDKQNPTKGALNKSRCTICGKLTEIRHEVSFKNMTHKLCSDHCFNRYRMANGLIMNCCEQCGEYLPSKGAGNNVLVIDGQQKRFCCQSCVSEYKQVGSHPSFLKEVRDHMQDSFLMQPEKYGKLTTCTGCRTQCRFFDMTQCIGPNGYMEPYCSTACMNSHKTKYAKSQSLGIICHFCKRNSLPQYQATMPDGKLYNFCNSSCVAKFQALSMQSSPNGQFVAPSDIQLKCNYCKNSFCSKPEILEWENKVHQFCSKTCSDDYKKLHCIVTYCEYCQEEKTLHETVNFSGVKRPFCSEGCKLLYKQDFARRLGLRCVTCNYCSQLCKKGATKELDGVVRDFCSEDCCKKFQDWYYKAARCDCCKSQGTLKERVQWRGEMKHFCDQHCLLRFYCQQNEPNMTTQKGPENLHYDQGCQTSRTKMTGSAPPPSPTPNKEMKNKAVLCKPLTMTKATYCKPHMQTKSCQTDDTWRTEYVPVPIPVPVYIPVPMHMYSQNIPVPTTVPVPVPVPVFLPAPLDSSEKIPAAIEELKSKVSSDALDTELLTMTDMMSEDEGKTETTNINSVIIETDIIGSDLLKNSDPETQSSMPDVPYEPDLDIEIDFPRAAEELDMENEFLLPPVFGEEYEEQPRPRSKKKGAKRKAVSGYQSHDDSSDNSECSFPFKYTYGVNAWKHWVKTRQLDEDLLVLDELKSSKSVKLKEDLLSHTTAELNYGLAHFVNEIRRPNGENYAPDSIYYLCLGIQEYLCGSNRKDNIFIDPGYQTFEQELNKILRSWQPSILPDGSIFSRVEEDYLWRIKQLGSHSPVALLNTLFYFNTKYFGLKTVEQHLRLSFGTVFRHWKKNPLTMENKACLRYQVSSLCGTDNEDKITTGKRKHEDDEPVFEQIENTANPSRCPVKMFECYLSKSPQNLNQRMDVFYLQPECSSSTDSPVWYTSTSLDRNTLENMLVRVLLVKDIYDKDNYELDEDTD [ZMYM2]” the “solubility in G1/S (log2)” value (HeLa Kyoto [1]) was -0.229, the melting temperature (HeLa Kyoto [2]; cell cycle stage: G1/S) was 49.3 °C and the melting temperature (HeLa Kyoto [2]; cell cycle stage: mitosis) was 49.7 °C. The “solubility change mitosis (log2)” value (HeLa Kyoto [3]) was 0.00298.
“MDVSGQETDWRSTAFRQKLVSQIEDAMRKAGVAHSKSSKDMESHVFLKAKTRDEYLSLVARLIIHFRDIHNKKSQASVSDPMNALQSLTGGPAAGAAGIGMPPRGPGQSLGGMGSLGAMGQPMSLSGQPPPGTSGMAPHSMAVVSTATPQTQLQLQQVALQQQQQQQQFQQQQQAALQQQQQQQQQQQFQAQQSAMQQQFQAVVQQQQQLQQQQQQQQHLIKLHHQNQQQIQQQQQQLQRIAQLQLQQQQQQQQQQQQQQQQALQAQPPIQQPPMQQPQPPPSQALPQQLQQMHHTQHHQPPPQPQQPPVAQNQPSQLPPQSQTQPLVSQAQALPGQMLYTQPPLKFVRAPMVVQQPPVQPQVQQQQTAVQTAQAAQMVAPGVQMITEALAQGGMHIRARFPPTTAVSAIPSSSIPLGRQPMAQVSQSSLPMLSSPSPGQQVQTPQSMPPPPQPSPQPGQPSSQPNSNVSSGPAPSPSSFLPSPSPQPSQSPVTARTPQNFSVPSPGPLNTPVNPSSVMSPAGSSQAEEQQYLDKLKQLSKYIEPLRRMINKIDKNEDRKKDLSKMKSLLDILTDPSKRCPLKTLQKCEIALEKLKNDMAVPTPPPPPVPPTKQQYLCQPLLDAVLANIRSPVFNHSLYRTFVPAMTAIHGPPITAPVVCTRKRRLEDDERQSIPSVLQGEVARLDPKFLVNLDPSHCSNNGTVHLICKLDDKDLPSVPPLELSVPADYPAQSPLWIDRQWQYDANPFLQSVHRCMTSRLLQLPDKHSVTALLNTWAQSVHQACLSAA [MED15]” was tested, and the “solubility in G1/S (log2)” value (HeLa Kyoto [1]) was 0.144, the melting temperature (HeLa Kyoto [2]; cell cycle stage: mitosis) was 51.3 °C and the “solubility change mitosis (log2)” value (HeLa Kyoto [3]) was 0.147.
In the case of “MEAAVGVPDGGDQGGAGPREDATPMDAYLRKLGLYRKLVAKDGSCLFRAVAEQVLHSQSRHVEVRMACIHYLRENREKFEAFIEGSFEEYLKRLENPQEWVGQVEISALSLMYRKDFIIYREPNVSPSQVTENNFPEKVLLCFSNGNHYDIVYPIKYKESSAMCQSLLYELLYEKVFKTDVSKIVMELDTLEVADEDNSEISDSEDDSCKSKTAAAAADVNGFKPLSGNEQLKNNGNSTSLPLSRKVLKSLNPAVYRNVEYEIWLKSKQAQQKRDYSIAAGLQYEVGDKCQVRLDHNGKFLNADVQGIHSENGPVLVEELGKKHTSKNLKAPPPESWNTVSGKKMKKPSTSGQNFHSDVDYRGPKNPSKPIKAPSALPPRLQHPSGVRQHAFSSHSSGSQSQKFSSEHKNLSRTPSQIIRKPDRERVEDFDHTSRESNYFGLSPEERREKQAIEESRLLYEIQNRDEQAFPALSSSSVNQSASQSSNPCVQRKSSHVGDRKGSRRRMDTEERKDKDSIHGHSQLDKRPEPSTLENITDDKYATVSSPSKSKKLECPSPAEQKPAEHVSLSNPAPLLVSPEVHLTPAVPSLPATVPAWPSEPTTFGPTGVPAPIPVLSVTQTLTTGPDSAVSQAHLTPSPVPVSIQAVNQPLMPLPQTLSLYQDPLYPGFPCNEKGDRAIVPPYSLCQTGEDLPKDKNILRFFFNLGVKAYSCPMWAPHSYLYPLHQAYLAACRMYPKVPVPVYPHNPWFQEAPAAQNESDCTCTDAHFPMQTEASVNGQMPQPEIGPPTFSSPLVIPPSQVSESHGQLSYQADLESETPGQLLHADYEESLSGKNMFPQPSFGPNPFLGPVPIAPPFFPHVWYGYPFQGFIENPVMRQNIVLPSDEKGELDLSLENLDLSKDCGSVSTVDEFPEARGEHVHSLPEASVSSKPDEGRTEQSSQTRKADTALASIPPVAEGKAHPPTQILNRERETVPVELEPKRTIQSLKEKTEKVKDPKTAADVVSPGANSVDSRVQRPKEESSEDENEVSNILRSGRSKQFYNQTYGSRKYKSDWGYSGRGGYQHVRSEESWKGQPSRSRDEGYQYHRNVRGRPFRGDRRRSGMGDGHRGQHT [OTUD4]”, the “solubility in G1/S (log2)” value (HeLa Kyoto [1]) was -0.0234, the melting temperature (HeLa Kyoto [2]; cell cycle stage: mitosis) was 51.1 °C and the “solubility change mitosis (log2)” value (HeLa Kyoto [3]) was 0.0663.
With “MEAEETMECLQEFPEHHKMILDRLNEQREQDRFTDITLIVDGHHFKAHKAVLAACSKFFYKFFQEFTQEPLVEIEGVSKMAFRHLIEFTYTAKLMIQGEEEANDVWKAAEFLQMLEAIKALEVRNKENSAPLEENTTGKNEAKKRKIAETSNVITESLPSAESEPVEIEVEIAEGTIEVEDEGIETLEEVASAKQSVKYIQSTGSSDDSALALLADITSKYRQGDRKGQIKEDGCPSDPTSKQVEGIEIVELQLSHVKDLFHCEKCNRSFKLFYHFKEHMKSHSTESFKCEICNKRYLRESAWKQHLNCYHLEEGGVSKKQRTGKKIHVCQYCEKQFDHFGHFKEHLRKHTGEKPFECPNCHERFARNSTLKCHLTACQTGVGAKKGRKKLYECQVCNSVFNSWDQFKDHLVIHTGDKPNHCTLCDLWFMQGNELRRHLSDAHNISERLVTEEVLSVETRVQTEPVTSMTIIEQVGKVHVLPLLQVQVDSAQVTVEQVHPDLLQDSQVHDSHMSELPEQVQVSYLEVGRIQTEEGTEVHVEELHVERVNQMPVEVQTELLEADLDHVTPEIMNQEERESSQADAAEAAREDHEDAEDLETKPTVDSEAEKAENEDRTALPVLE [ZNF131]” the “solubility in G1/S (log2)” value (HeLa Kyoto [1]) was -0.231, the melting temperature (HeLa Kyoto [2]; cell cycle stage: G1/S) was 46.6 °C and the “solubility change mitosis (log2)” value (HeLa Kyoto [3]) was -0.0242.
For “MEAVATATAAKEPDKGCIEPGPGHWGELSRTPVPSKPQDKVEAAEATPVALDSDTSGAENAAVSAMLHAVAASRLPVCSQQQGEPDLTEHEKVAILAQLYHEKPLVFLERFRTGLREEHLACFGHVRGDHRADFYCAEVARQGTARPRTLRTRLRNRRYAALRELIQGGEYFSDEQMRFRAPLLYEQYIGQYLTQEELSARTPTHQPPKPGSPGRPACPLSNLLLQSYEERELQQRLLQQQEEEEACLEEEEEEEDSDEEDQRSGKDSEAWVPDSEERLILREEFTSRMHQRFLDGKDGDFDYSTVDDNPDFDNLDIVARDEEERYFDEEEPEDAPSPELDGD [CCDC97]”, the “solubility in G1/S (log2)” value (HeLa Kyoto [1]) was 0.105, the melting temperature (HeLa Kyoto [2]; cell cycle stage: G1/S) was 49.6 °C and the melting temperature (HeLa Kyoto [2]; cell cycle stage: mitosis) was 50.8 °C. For the same sequence, the “solubility change mitosis (log2)” value (HeLa Kyoto [3]) was 0.36.
“MESGDEAAIERHRVHLRSATLRDAVPATLHLLPCEVAVDGPAPVGRFFTPAIRQGPEGLEVSFRGRCLRGEEVAVPPGLVGYVMVTEEKKVSMGKPDPLRDSGTDDQEEEPLERDFDRFIGATANFSRFTLWGLETIPGPDAKVRGALTWPSLAAAIHAQVPED [RNASEH2C]” was tested, and the “solubility in G1/S (log2)” value (HeLa Kyoto [1]) was 0.236, the melting temperature (HeLa Kyoto [2]; cell cycle stage: G1/S) was 50.7 °C and the melting temperature (HeLa Kyoto [2]; cell cycle stage: mitosis) was 50.3 °C. The “solubility change mitosis (log2)” value (HeLa Kyoto [3]) was -0.016.
“MEVHGKPKASPSCSSPTRDSSGVPVSKELLTAGSDGRGGIWDRLLINSQPKSRKTSTLQTVRIERSPLLDQVQTFLPQMARANEKLRKEMAAAPPGRFNIENIDGPHSKVIQMDVALFEMNQSDSKEVDSSEESSQDSSENSSESEDEDDSIPSEVTIDNIKLPNSEGGKGKIEVLDSPASKKKK [C12ORF45]” was tested, and the “solubility in G1/S (log2)” value (HeLa Kyoto [1]) was -0.302, the melting temperature (HeLa Kyoto [2]; cell cycle stage: G1/S) was 52.9 °C and the melting temperature (HeLa Kyoto [2]; cell cycle stage: mitosis) was 53.7 °C. For the same sequence, the “solubility change mitosis (log2)” value (HeLa Kyoto [3]) was 0.0873.
With “MFHGIPATPGIGAPGNKPELYEEVKLYKNAREREKYDNMAELFAVVKTMQALEKAYIKDCVSPSEYTAACSRLLVQYKAAFRQVQGSEISSIDEFCRKFRLDCPLAMERIKEDRPITIKDDKGNLNRCIADVVSLFITVMDKLRLEIRAMDEIQPDLRELMETMHRMSHLPPDFEGRQTVSQWLQTLSGMSASDELDDSQVRQMLFDLESAYNAFNRFLHA [VPS28]” the “solubility in G1/S (log2)” value (HeLa Kyoto [1]) was 0.19, the melting temperature (HeLa Kyoto [2]; cell cycle stage: G1/S) was 51.5 °C and the “solubility change mitosis (log2)” value (HeLa Kyoto [3]) was 0.014.
For “MGAPRSLLLALAAGLAVARPPNIVLIFADDLGYGDLGCYGHPSSTTPNLDQLAAGGLRFTDFYVPVSLCTPSRAALLTGRLPVRMGMYPGVLVPSSRGGLPLEEVTVAEVLAARGYLTGMAGKWHLGVGPEGAFLPPHQGFHRFLGIPYSHDQGPCQNLTCFPPATPCDGGCDQGLVPIPLLANLSVEAQPPWLPGLEARYMAFAHDLMADAQRQDRPFFLYYASHHTHYPQFSGQSFAERSGRGPFGDSLMELDAAVGTLMTAIGDLGLLEETLVIFTADNGPETMRMSRGGCSGLLRCGKGTTYEGGVREPALAFWPGHIAPGVTHELASSLDLLPTLAALAGAPLPNVTLDGFDLSPLLLGTGKSPRQSLFFYPSYPDEVRGVFAVRTGKYKAHFFTQGSAHSDTTADPACHASSSLTAHEPPLLYDLSKDPGENYNLLGGVAGATPEVLQALKQLQLLKAQLDAAVTFGPSQVARGEDPALQICCHPGCTPRPACCHCPDPHA [ARSA]”, the “solubility in G1/S (log2)” value (HeLa Kyoto [1]) was 0.664, the melting temperature (HeLa Kyoto [2]; cell cycle stage: G1/S) was 55.6 °C and the melting temperature (HeLa Kyoto [2]; cell cycle stage: mitosis) was 55.6 °C. The “solubility change mitosis (log2)” value (HeLa Kyoto [3]) was -0.0336.

Source: the supplement of paper PMC5998384
